Experimental data from paper PMC9600979.

What was measured:
[1] = biological target: gH-Lg TMDEBV / HSV-1 gL (herpes simplex virus 1 (strain KOS) | Epstein-Barr virus) (UniProt P10185); assay: split reporter (BiFC, NanoBiT); live CHO effector cells transfected with the two BiT-tagged partners and the remaining HSV-1 proteins required for fusion; Endurazine substrate; luminescence every 2 min at 37°C for 1 h before and 7.5 or 8 h after adding target CHO cells with or without nectin-1; quantified as area under the curve
[2] = biological target: gH-Lg TMDEBV-CTSCR / HSV-1 gL (herpes simplex virus 1 (strain KOS) | Epstein-Barr virus) (UniProt P10185); assay: as above
[3] = biological target: gH-Lg CTSCR / HSV-1 gL (herpes simplex virus 1 (strain KOS)) (UniProt P10185); assay: as above
[4] = biological target: HSV-1 gH-Lg expressed without gL (herpes simplex virus 1 (strain KOS)) (UniProt P06477); assay: split reporter (BiFC, NanoBiT); as the NanoBiT assay in live CHO cells, but in the absence of HSV-1 gL (gH stays in the ER)
UniProt P06477, sequence (P06477 19-838): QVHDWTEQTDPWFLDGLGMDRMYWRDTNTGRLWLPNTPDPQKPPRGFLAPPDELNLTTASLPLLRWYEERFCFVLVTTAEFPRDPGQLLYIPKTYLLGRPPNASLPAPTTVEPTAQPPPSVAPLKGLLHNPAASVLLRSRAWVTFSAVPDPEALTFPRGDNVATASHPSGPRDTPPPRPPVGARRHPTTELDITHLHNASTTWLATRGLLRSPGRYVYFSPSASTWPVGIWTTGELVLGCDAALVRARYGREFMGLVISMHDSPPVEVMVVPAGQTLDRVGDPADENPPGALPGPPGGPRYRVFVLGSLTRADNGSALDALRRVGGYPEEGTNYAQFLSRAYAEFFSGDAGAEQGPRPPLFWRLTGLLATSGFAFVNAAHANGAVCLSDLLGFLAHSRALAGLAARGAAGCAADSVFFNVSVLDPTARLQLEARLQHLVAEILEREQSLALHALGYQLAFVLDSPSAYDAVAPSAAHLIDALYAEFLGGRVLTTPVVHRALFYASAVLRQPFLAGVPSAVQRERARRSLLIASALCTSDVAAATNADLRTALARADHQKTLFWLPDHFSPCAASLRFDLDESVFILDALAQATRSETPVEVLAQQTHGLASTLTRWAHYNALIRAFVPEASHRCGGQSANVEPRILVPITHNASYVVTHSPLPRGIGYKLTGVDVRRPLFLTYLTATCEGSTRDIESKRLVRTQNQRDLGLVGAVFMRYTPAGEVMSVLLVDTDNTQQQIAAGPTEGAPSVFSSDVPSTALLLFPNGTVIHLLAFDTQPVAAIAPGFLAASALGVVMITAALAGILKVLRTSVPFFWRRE

| Substance | percent of the interaction of WT HSV-1 gH-Lg/gL [1] | percent of the interaction of WT HSV-1 gH-Lg/gL [2] | percent of the interaction of WT HSV-1 gH-Lg/gL [3] | fold reduction in the absence of gL (against gH-Lg/gL) [4] | percent of the interaction of WT HSV-1 gH-Lg [2] |
| --- | --- | --- | --- | --- | --- |
| HSV-1 gB-Sm (from UniProt P06437 31-904) (natural protein) | 60% | 54% | 60% | – | – |
| HSV-1 gD-Sm (from UniProt Q69091 26-394) (natural protein) | – | – | – | 6 fold | 45% |
